Data as given in the supplement of paper PMC9112550, “Optimization of the antimicrobial peptide Bac7 by deep mutational scanning” (BMC Biology, 2022).

Each sequence was assayed on Escherichia coli TOP10 (assay: shrunken log2 fold change of peptide-encoding DNA abundance (4.5 h post-induction vs induction); higher = less antimicrobial activity (less host growth inhibition)). Conditions: time post-induction: 4.5 h; library: site-saturation at positions 5, 18, 19, 20.
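Note: peptides expressed intracellularly from a pBAD plasmid library in pooled LB shake-flask culture, induced with 0.3% L-arabinose, DNA abundance read by NGS, three biological replicates, DESeq2 with apeglm shrinkage.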

Row | Sequence | shrunken log2 fold change
1 | RRIRERPPRLPRPRPRPIHIPRP | 0.0108
2 | RRIRWRPPRLPRPRPRPKKFPRP | 0.0141
3 | RRIRTRPPRLPRPRPRPVDHPRP | -0.216
4 | RRIRWRPPRLPRPRPRPYHEPRP | -0.123
5 | RRIRMRPPRLPRPRPRPEELPRP | 0.123
6 | RRIRGRPPRLPRPRPRPTTRPRP | 0.79
7 | RRIRPRPPRLPRPRPRPQKTPRP | -0.0227
8 | RRIRIRPPRLPRPRPRPVGRPRP | 0.0883
9 | RRIRFRPPRLPRPRPRPMGFPRP | -0.0249
10 | RRIRQRPPRLPRPRPRPKGMPRP | 0.0157
11 | RRIRDRPPRLPRPRPRPKKLPRP | -0.0595
12 | RRIRKRPPRLPRPRPRPMPHPRP | 0.274
13 | RRIRSRPPRLPRPRPRPKSDPRP | -0.082
14 | RRIRTRPPRLPRPRPRPVPHPRP | -0.0291
15 | RRIRTRPPRLPRPRPRPQGYPRP | -0.943
16 | RRIRMRPPRLPRPRPRPHIQPRP | -0.421
17 | RRIRNRPPRLPRPRPRPVEIPRP | -0.0323
18 | RRIRTRPPRLPRPRPRPHNDPRP | -1.58
19 | RRIRCRPPRLPRPRPRPKKQPRP | 0.155
20 | RRIRVRPPRLPRPRPRPTTQPRP | 0.0531
21 | RRIRFRPPRLPRPRPRPCQVPRP | 0.084
22 | RRIRVRPPRLPRPRPRPCQFPRP | 0.143
23 | RRIRRRPPRLPRPRPRPCWWPRP | 0.261
24 | RRIRKRPPRLPRPRPRPGCAPRP | 0.82
25 | RRIRLRPPRLPRPRPRPKHSPRP | -0.107

Row | Sequence | shrunken log2 fold change
26 | RRIRSRPPRLPRPRPRPGFDPRP | 0.455
27 | RRIRGRPPRLPRPRPRPIAQPRP | 0.838
28 | RRIRDRPPRLPRPRPRPCWLPRP | 0.127
29 | RRIRFRPPRLPRPRPRPSSWPRP | -0.105
30 | RRIRQRPPRLPRPRPRPITYPRP | -0.402
31 | RRIRYRPPRLPRPRPRPKDAPRP | -0.0259
32 | RRIRHRPPRLPRPRPRPLWKPRP | -0.102
33 | RRIRDRPPRLPRPRPRPPARPRP | 1.46
34 | RRIRHRPPRLPRPRPRPLKNPRP | -0.273
35 | RRIRCRPPRLPRPRPRPQTTPRP | -0.155
36 | RRIRVRPPRLPRPRPRPEPNPRP | 0.19
37 | RRIRCRPPRLPRPRPRPNMYPRP | -0.916
38 | RRIRIRPPRLPRPRPRPRCSPRP | -0.137
39 | RRIRMRPPRLPRPRPRPTLVPRP | 0.171
40 | RRIRERPPRLPRPRPRPLHMPRP | -0.203
41 | RRIRYRPPRLPRPRPRPAFRPRP | -0.287
42 | RRIRDRPPRLPRPRPRPSHYPRP | -1.14
43 | RRIRCRPPRLPRPRPRPFLVPRP | -0.511
44 | RRIRCRPPRLPRPRPRPCYAPRP | -0.387
45 | RRIRRRPPRLPRPRPRPADSPRP | -0.0331
46 | RRIRYRPPRLPRPRPRPYWAPRP | -1.11
47 | RRIRQRPPRLPRPRPRPGTTPRP | 0.155
48 | RRIRHRPPRLPRPRPRPPGAPRP | 0.935
49 | RRIRSRPPRLPRPRPRPQGFPRP | -0.0809
50 | RRIRLRPPRLPRPRPRPEAWPRP | 0.0169

Row | Sequence | shrunken log2 fold change
51 | RRIRRRPPRLPRPRPRPEAHPRP | 0.171
52 | RRIRVRPPRLPRPRPRPDHHPRP | -0.392
53 | RRIRRRPPRLPRPRPRPQAPPRP | 0.236
54 | RRIRVRPPRLPRPRPRPQKCPRP | -0.0983
55 | RRIRWRPPRLPRPRPRPRIQPRP | 0.273
56 | RRIRPRPPRLPRPRPRPMNNPRP | -0.916
57 | RRIRHRPPRLPRPRPRPDPLPRP | -0.106
58 | RRIRRRPPRLPRPRPRPTNEPRP | 0.0166
59 | RRIRTRPPRLPRPRPRPSHFPRP | -0.315
60 | RRIRYRPPRLPRPRPRPDRTPRP | -0.0309
61 | RRIRTRPPRLPRPRPRPCPKPRP | 0.0604
62 | RRIRKRPPRLPRPRPRPASRPRP | 0.519
63 | RRIRSRPPRLPRPRPRPGSFPRP | 0.209
64 | RRIRWRPPRLPRPRPRPQCWPRP | 0.0793
65 | RRIRWRPPRLPRPRPRPWPSPRP | 0.018
66 | RRIRARPPRLPRPRPRPIMLPRP | -0.43
67 | RRIRWRPPRLPRPRPRPYVSPRP | -0.0404
68 | RRIRHRPPRLPRPRPRPHTRPRP | -0.174
69 | RRIRSRPPRLPRPRPRPRPNPRP | 0.345
70 | RRIRLRPPRLPRPRPRPHNEPRP | -0.497
71 | RRIRWRPPRLPRPRPRPRDCPRP | 0.226
72 | RRIRQRPPRLPRPRPRPAPWPRP | 0.548
73 | RRIRNRPPRLPRPRPRPQGYPRP | -0.667
74 | RRIRSRPPRLPRPRPRPEHLPRP | -0.258
75 | RRIRMRPPRLPRPRPRPRGWPRP | 1.34

Row | Sequence | shrunken log2 fold change
76 | RRIRYRPPRLPRPRPRPAYMPRP | -0.396
77 | RRIRWRPPRLPRPRPRPKGQPRP | -0.0148
78 | RRIRIRPPRLPRPRPRPRYDPRP | -0.285
79 | RRIRSRPPRLPRPRPRPARHPRP | 0.277
80 | RRIRNRPPRLPRPRPRPPLMPRP | -0.0745
81 | RRIRRRPPRLPRPRPRPGHYPRP | -0.0611
82 | RRIRSRPPRLPRPRPRPMSFPRP | -0.374
83 | RRIRARPPRLPRPRPRPRGGPRP | 0.737
84 | RRIRWRPPRLPRPRPRPHDPPRP | 0.23
85 | RRIRIRPPRLPRPRPRPDTPPRP | 0.0459
86 | RRIRNRPPRLPRPRPRPYTKPRP | -0.0607
87 | RRIRRRPPRLPRPRPRPVEYPRP | -0.00275
88 | RRIRERPPRLPRPRPRPGLSPRP | -0.113
89 | RRIRDRPPRLPRPRPRPAEKPRP | 0.0328
90 | RRIRDRPPRLPRPRPRPWIGPRP | 0.0362
91 | RRIRKRPPRLPRPRPRPMKLPRP | 0.0347
92 | RRIRNRPPRLPRPRPRPYFDPRP | -0.0504
93 | RRIRVRPPRLPRPRPRPYAEPRP | -0.0642
94 | RRIRVRPPRLPRPRPRPKARPRP | 0.295
95 | RRIRVRPPRLPRPRPRPDWIPRP | -0.218
96 | RRIRQRPPRLPRPRPRPDPCPRP | -0.243
97 | RRIRRRPPRLPRPRPRPIYMPRP | -0.138
98 | RRIRSRPPRLPRPRPRPVKNPRP | 0.291
99 | RRIRARPPRLPRPRPRPAPWPRP | 0.632
100 | RRIRNRPPRLPRPRPRPGAVPRP | 0.248

Row | Sequence | shrunken log2 fold change
101 | RRIRLRPPRLPRPRPRPMEVPRP | -0.0152
102 | RRIRGRPPRLPRPRPRPAQGPRP | 0.313
103 | RRIRSRPPRLPRPRPRPLKVPRP | -0.0229
104 | RRIRRRPPRLPRPRPRPGDRPRP | 0.265
105 | RRIRHRPPRLPRPRPRPNSFPRP | 0.00867
106 | RRIRRRPPRLPRPRPRPIQIPRP | -0.00118
107 | RRIRRRPPRLPRPRPRPCRNPRP | 0.0376
108 | RRIRVRPPRLPRPRPRPLIDPRP | 0.119
109 | RRIRERPPRLPRPRPRPGERPRP | 0.104
110 | RRIRDRPPRLPRPRPRPDSVPRP | -0.0148
111 | RRIRLRPPRLPRPRPRPWWVPRP | 0.0559
112 | RRIRRRPPRLPRPRPRPKVGPRP | -0.119
113 | RRIRARPPRLPRPRPRPSWEPRP | 0.162
114 | RRIRTRPPRLPRPRPRPSQPPRP | -0.16
115 | RRIRFRPPRLPRPRPRPSNFPRP | -0.129
116 | RRIRCRPPRLPRPRPRPDYYPRP | -0.231
117 | RRIRIRPPRLPRPRPRPPGDPRP | -0.0965
118 | RRIRARPPRLPRPRPRPHQPPRP | -0.115
119 | RRIRHRPPRLPRPRPRPKDAPRP | -0.112
120 | RRIRERPPRLPRPRPRPGCMPRP | -0.00389
121 | RRIRSRPPRLPRPRPRPMCVPRP | -0.134
122 | RRIRFRPPRLPRPRPRPTLCPRP | 0.107
123 | RRIRERPPRLPRPRPRPSWPPRP | -0.079
124 | RRIRPRPPRLPRPRPRPFFQPRP | 0.0612
125 | RRIRDRPPRLPRPRPRPKNIPRP | -0.465

Row | Sequence | shrunken log2 fold change
126 | RRIRGRPPRLPRPRPRPWNVPRP | -0.0303
127 | RRIRWRPPRLPRPRPRPYGGPRP | -0.683
128 | RRIRSRPPRLPRPRPRPWPHPRP | -0.0676
129 | RRIRNRPPRLPRPRPRPGGGPRP | 0.723
130 | RRIRPRPPRLPRPRPRPHLEPRP | -0.122
131 | RRIRYRPPRLPRPRPRPPTIPRP | -0.424
132 | RRIRDRPPRLPRPRPRPKQAPRP | 0.0366
133 | RRIRWRPPRLPRPRPRPNMRPRP | 0.0208
134 | RRIRMRPPRLPRPRPRPNMHPRP | -0.0148
135 | RRIRPRPPRLPRPRPRPELGPRP | 0.24
136 | RRIRVRPPRLPRPRPRPTMRPRP | 0.799
137 | RRIRGRPPRLPRPRPRPWHKPRP | -0.299
138 | RRIRGRPPRLPRPRPRPQEVPRP | 0.00966
139 | RRIRKRPPRLPRPRPRPMDWPRP | 0.256
140 | RRIRARPPRLPRPRPRPRMEPRP | 0.539
141 | RRIRYRPPRLPRPRPRPSCKPRP | -0.908
142 | RRIRNRPPRLPRPRPRPVDYPRP | -0.0368
143 | RRIRRRPPRLPRPRPRPETDPRP | -0.00744
144 | RRIRYRPPRLPRPRPRPVKTPRP | -0.0365
145 | RRIRRRPPRLPRPRPRPPSNPRP | 0.0633
146 | RRIRARPPRLPRPRPRPSYMPRP | -0.761
147 | RRIRKRPPRLPRPRPRPMNHPRP | 0.395
148 | RRIRVRPPRLPRPRPRPLGPPRP | 0.342
149 | RRIRRRPPRLPRPRPRPLTAPRP | 0.337
150 | RRIRDRPPRLPRPRPRPNGRPRP | 0.00232
